Laboratory results from US20030232387A1 (Takeda / Millennium, published 2003).
“And” between values parts separate entries of the source, which are not always exact repeats. Equal values may be shown once.

B1: mAb 3G6 (IgG1) (antibody, V domains shown)
VH: EVQLVQSGAEVKKPGESLKISCKGSGYSFTSYWIGWVRQMPGKGLEWMGIIYPGDSGPRYSPSFQGQVTISADKSISTAYLQWSSLKASDTAMYYCARLSYTSTWYPYYFDYWGQGTLVTVSS
VL: not shown
notes: Human antibody; also called converted 3G6 (IgG1); antibody produced by CHO 3G6 C1.2D6
B2: mAb 5E4 (IgG1) (antibody, V domains shown)
VH: EVQLVESGGGLVQPGGSLRLSCAASGFTFSNFWMSWVRQAPGKGLEWMANIKQDGSEKYYVDSVKGRFTISRDNAKSSLFLQMNSLRVDDTAVYFCAGDYYDSGSFYWGQGTLVTVSS
VL: EIVLTQSPATLSLSPGERATLSCRASQSVRSNLAWYQQKPGQAPRLLIYDASNRAIGIPARFSGSGSGTDFTLTISSLEPEDFVVYYCQQRSNWPPWTFGQGTKVEIK
notes: Human antibody; also called converted 5E4 (IgG1); antibody produced by CHO 5G4 A1.2C12
B3: mAb 8D5 (IgG1) (antibody, V domains shown)
VH: QVQLQESGPGLVKPSETLSLTCTVSGGSVSSYYWSWIRQPPGKGLEWIGHIYYSGNTNYNPSLKSRVTISVDTSKNQFSLKLSSVTAADTAVYFCARDRWNYYDSSPGYYYYYGMDVWGQGTTVTVSS
VL: DIQMTQSPSSLSASVGDRVTITCRASQGIRNDLGWYQQKPGKAPKRLIFAASHLQSGVPSRFSGSGSGTEFTLTISSLQPEDFATYYCQQHNSSPFTFGPGTRVDIK
notes: The variable domains are the same either way
B4: mAb 8D5 (antibody, V domains shown)
VH: B3 VH
VL: B3 VL
notes: also called 8D5 IgG2; human mAb 8D5 (IgG2)
B5: mAb 5E4 (antibody, V domains shown)
VH: B2 VH
VL: B2 VL
notes: The variable domains are the same as in m3 and m4

How the values were obtained:
[1] = target: T1, α4β7 integrin expressed on transfected K562 cells (human, UniProt P13612 34-1032; P26010 20-798); assay: flow cytometry on K562 α4β7 transfectants
T1 construct: How the α4β7 transfectants were made is not described; also called α4β7 transfectants

[2] = target: T2, human αEβ7 integrin expressed on cells (human, UniProt P38570 19-1179; P26010 20-798); assay: cell adhesion assay, inhibition of K562 αEβ7 cells binding to immobilised E-cadherin-IgG
T2 construct: also called K562 transfectants that express αEβ7; L1.2 αEβ7 transfectants
Experimental: ELISA plates were coated with 100 ng/well E-cadherin-IgG fusion protein in TBS (20 mM Tris, 140 mM NaCl, pH 9)/1 mM CaCl₂ overnight at 4° C. Plates were washed with wash buffer (HBSS/1 mM CaCl₂), and blocked with HBSS/1 mM CaCl₂/2% BSA for one hour at 37° C. After blocking, plates were washed twice with wash buffer. K562 transfectants at log growth stage were collected, washed once in HBSS/0.2% BSA/1 mM CaCl₂/1 mM MgCl₂, and resuspended to 4×10⁶ cells/mL in the same buffer. Cells were labeled with the fluorecent dye BCECF-AM (Molecular Probes, 4 μg/ml final concentration) for 15 minutes at […]. Labeled cells were washed twice, and resuspended in assay buffer (HBSS/0.2% BSA/1 mM CaCl₂/1 mM MgCl₂/1 mM MnCl₂) to 8×10⁵ cells/mL. 50 μl of the cell suspension was added to the E-cadherin-IgG coated well (4×10⁴ cells/well), and mixed with 50 μl assay buffer containing antibodies with desired concentration, or isotype-matched control antibody. The plate was then incubated at room temperature for 1 hour. The fluorescence content in each well was read on a Fluorescent Concentration Analyser (IDEXX, Westbrook, Me.) before and after three washes with HBSS/0.5 mM CaCl₂/0.5 mM MgCl₂/0.5 mM MnCl₂ using a Microplate Autowasher (Bio-Tek instruments, Winooski, Vt.). The Microplate Autowasher was programmed with parameters: 250 μl wash volume, 1× wash cycle, 0 soak time, and aspiration tube depth of 70. The bound cells (after washes) were expressed as a percentage of total input cells (before washes) in each well. Each sample was set up in triplicate wells.

[3] = target: mutant αEβ7 integrin, αE F298A, on transfected K562 cells (human, UniProt P38570 19-1179; P26010 20-798, F298A); assay: flow cytometry on K562 cells expressing αEβ7 with αE F298A
Experimental: The fine specificity of mAb 5E4 was determined using a panel of transfected K562 cells that expressed various mutant αEβ7 integrins and detecting antibody binding to the transfectants by flow cytometry. The mutants proteins and methods used have been previously described in Higgins, J. M. G. et al., J. Biol. Chem. 275:25652-25664 (2000). The mutant αEβ7 integrins used contained the following mutations in the αE chain: R159S/R160S; ΔE163-E180; ΔE176; D190A; G193A; D199A; R202A/D205A; G230A/V231A; D240A; F298A; P311H/E345A/T346A; E325A; and Y354W. (See, Higgins, J. M. G. et al., J. Biol. Chem. 275:25652-25664 (2000).)
The fine specificity of mAb 5E4 was examined using transfected K562 cells that expressed αEβ7 integrin or mutated version of αEβ7 integrins, and antibody binding was detected by flow cytometry. Antibody binding was inhibited by deletion of amino acid residues 163-180 (ΔE163-E180; amino acid residues 163-180 of SEQ ID NO: 2), which are in the X domain of integrin αE chain, and was essentially abrogated by mutation of amino acid residue 298 (amino acid residue 298 of SEQ ID NO:2), which is in the I-domain, from Phenylalanine to Alanine (F298A).

T2 sequence (P38570 other isoform, or with tags, fused parts or gaps limits assumed, chain 1 of 2): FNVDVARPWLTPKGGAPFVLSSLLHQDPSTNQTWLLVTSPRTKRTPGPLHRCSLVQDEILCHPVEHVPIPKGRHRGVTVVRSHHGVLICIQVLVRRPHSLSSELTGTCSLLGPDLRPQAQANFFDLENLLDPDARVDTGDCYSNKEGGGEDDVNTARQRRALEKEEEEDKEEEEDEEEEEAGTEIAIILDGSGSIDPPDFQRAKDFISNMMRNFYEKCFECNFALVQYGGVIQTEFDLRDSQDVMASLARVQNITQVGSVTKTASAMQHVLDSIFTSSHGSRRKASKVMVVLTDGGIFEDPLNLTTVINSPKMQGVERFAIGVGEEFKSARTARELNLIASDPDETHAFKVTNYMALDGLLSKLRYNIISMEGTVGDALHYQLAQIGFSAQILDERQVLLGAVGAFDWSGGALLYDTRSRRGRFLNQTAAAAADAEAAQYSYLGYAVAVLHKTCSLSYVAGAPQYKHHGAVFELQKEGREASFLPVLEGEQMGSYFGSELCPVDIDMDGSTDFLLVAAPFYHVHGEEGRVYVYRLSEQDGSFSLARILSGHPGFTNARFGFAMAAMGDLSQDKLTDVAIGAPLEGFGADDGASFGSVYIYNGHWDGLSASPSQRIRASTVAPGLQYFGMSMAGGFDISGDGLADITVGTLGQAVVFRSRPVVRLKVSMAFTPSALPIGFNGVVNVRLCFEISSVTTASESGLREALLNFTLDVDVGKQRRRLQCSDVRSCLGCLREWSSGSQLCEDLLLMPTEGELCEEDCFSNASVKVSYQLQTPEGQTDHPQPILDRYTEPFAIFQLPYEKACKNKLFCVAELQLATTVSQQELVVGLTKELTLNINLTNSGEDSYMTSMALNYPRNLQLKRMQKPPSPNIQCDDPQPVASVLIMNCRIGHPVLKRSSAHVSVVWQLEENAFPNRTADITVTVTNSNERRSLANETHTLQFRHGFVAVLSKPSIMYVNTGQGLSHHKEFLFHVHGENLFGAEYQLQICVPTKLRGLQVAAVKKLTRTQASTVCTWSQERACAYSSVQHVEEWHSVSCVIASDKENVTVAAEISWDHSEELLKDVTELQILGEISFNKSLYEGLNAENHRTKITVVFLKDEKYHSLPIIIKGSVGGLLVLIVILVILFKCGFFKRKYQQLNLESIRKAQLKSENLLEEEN
T2 sequence (P26010 20-798 limits assumed, chain 2 of 2): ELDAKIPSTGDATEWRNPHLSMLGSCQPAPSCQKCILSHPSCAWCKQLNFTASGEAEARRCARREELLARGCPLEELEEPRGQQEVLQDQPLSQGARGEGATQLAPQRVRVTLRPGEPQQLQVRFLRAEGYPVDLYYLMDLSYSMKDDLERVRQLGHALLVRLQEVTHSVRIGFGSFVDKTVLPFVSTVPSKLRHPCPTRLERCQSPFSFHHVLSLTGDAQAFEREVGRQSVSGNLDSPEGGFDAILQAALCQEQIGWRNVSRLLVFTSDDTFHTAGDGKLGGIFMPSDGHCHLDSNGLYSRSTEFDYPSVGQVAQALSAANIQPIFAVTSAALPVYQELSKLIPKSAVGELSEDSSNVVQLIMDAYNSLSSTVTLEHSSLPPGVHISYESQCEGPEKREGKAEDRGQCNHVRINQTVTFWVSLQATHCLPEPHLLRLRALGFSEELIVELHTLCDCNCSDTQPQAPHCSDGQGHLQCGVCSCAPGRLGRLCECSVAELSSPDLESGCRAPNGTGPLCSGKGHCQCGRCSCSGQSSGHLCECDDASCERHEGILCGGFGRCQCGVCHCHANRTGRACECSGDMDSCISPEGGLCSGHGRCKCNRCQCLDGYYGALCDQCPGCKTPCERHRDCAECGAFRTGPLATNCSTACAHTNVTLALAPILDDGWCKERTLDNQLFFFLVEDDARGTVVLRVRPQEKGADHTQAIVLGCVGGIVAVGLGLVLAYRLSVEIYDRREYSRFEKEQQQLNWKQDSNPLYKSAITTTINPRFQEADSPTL
T1 sequence (P13612 34-1032 R878Q limits assumed, chain 1 of 2): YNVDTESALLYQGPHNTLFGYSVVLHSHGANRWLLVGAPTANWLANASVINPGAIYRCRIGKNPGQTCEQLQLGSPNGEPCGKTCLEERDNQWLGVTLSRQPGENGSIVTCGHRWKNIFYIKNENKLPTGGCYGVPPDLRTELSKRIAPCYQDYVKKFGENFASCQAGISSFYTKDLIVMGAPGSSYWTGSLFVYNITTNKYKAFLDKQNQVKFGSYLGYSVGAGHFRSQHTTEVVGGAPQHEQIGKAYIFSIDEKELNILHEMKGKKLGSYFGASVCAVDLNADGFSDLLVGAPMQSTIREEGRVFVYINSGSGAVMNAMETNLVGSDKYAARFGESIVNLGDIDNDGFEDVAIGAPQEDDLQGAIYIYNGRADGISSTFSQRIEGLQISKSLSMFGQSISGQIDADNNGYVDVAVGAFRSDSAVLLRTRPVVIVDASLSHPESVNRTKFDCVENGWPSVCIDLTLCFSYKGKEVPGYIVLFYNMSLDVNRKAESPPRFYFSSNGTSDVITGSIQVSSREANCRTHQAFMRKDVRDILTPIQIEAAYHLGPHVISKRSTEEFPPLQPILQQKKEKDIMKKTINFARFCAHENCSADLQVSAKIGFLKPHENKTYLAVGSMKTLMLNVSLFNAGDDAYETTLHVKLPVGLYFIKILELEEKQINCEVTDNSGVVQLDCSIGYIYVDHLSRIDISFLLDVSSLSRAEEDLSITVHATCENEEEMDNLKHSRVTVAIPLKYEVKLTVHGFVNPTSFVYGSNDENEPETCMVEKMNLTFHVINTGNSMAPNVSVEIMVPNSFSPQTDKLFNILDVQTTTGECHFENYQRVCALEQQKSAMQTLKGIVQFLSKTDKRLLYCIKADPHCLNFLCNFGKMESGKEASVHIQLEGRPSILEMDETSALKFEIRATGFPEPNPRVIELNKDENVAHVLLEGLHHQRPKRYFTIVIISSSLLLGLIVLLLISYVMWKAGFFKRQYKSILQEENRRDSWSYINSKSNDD
T1 sequence (P26010 20-798 limits assumed, chain 2 of 2): as the sequence (P26010 20-798 limits assumed, chain 2 of 2) above
mutant αEβ7 integrin, αE F298A, on transfected K562 cells, sequence (P38570 other isoform, or with tags, fused parts or gaps F298A | F298A F298A, chain 1 of 2): as the sequence (P38570 other isoform, or with tags, fused parts or gaps limits assumed, chain 1 of 2) above, with F298A counted along it
mutant αEβ7 integrin, αE F298A, on transfected K562 cells, sequence (P26010 20-798, chain 2 of 2): as the sequence (P26010 20-798 limits assumed, chain 2 of 2) above

Binder | binding result [1] | IC50 [2] | binding result [3]
B1 | no binding | ~2.04 µg/mL and ~13.4 nM | –
B2 | no binding | ~1.29 µg/mL and ~8.5 nM | –
B3 | – | ~0.715 µg/mL and ~4.7 nM | –
B4 | no binding | – | –
B5 | – | – | no binding
